The results in this text go back to patent publication US7709002.

Experiment [1] has as its target ras p21 proteins of the SW480 colon carcinoma cell line (K-ras Val12 mutation) (human) (UniProt P01116). Description: sandwich ELISA, RAS 10 capture of SW480 lysate, rat anti-mouse B7.1 in place of the detection MAb. Background: ELISA stands for enzyme-linked immunosorbent assay.
Experiment [2] deals with ras p21 proteins of the Calu-1 lung carcinoma cell line (K-ras Cys12 mutation) (human) (UniProt P01116). Put plainly: sandwich ELISA, RAS 10 capture of Calu-1 lysate, rat anti-mouse B7.1 in place of the detection MAb.
Experiment [3] concerns the target ras p21 proteins of the HT-29 colon carcinoma cell line (no known ras codon 12 point mutation) (human) (UniProt P01116). Description: sandwich ELISA, RAS 10 capture of HT29 lysate, rat anti-mouse B7.1 in place of the detection MAb.
Experiment [4] has as its target HLA-A2 (human). Put plainly: T2 bioassay, no peptide, flow cytometry, isotype-matched control MAb staining of T2 cells. In general terms: A flow cytometer gives signals particle by particle.
In experiment [5] the target is HLA-A2 (human). Description: T2 bioassay, isotype-matched control MAb staining of T2 cells incubated with ras8-16(V12).
For experiment [6], the target named is ras p21 proteins of the HT-29 colon carcinoma cell line (no known ras codon 12 point mutation) (human) (UniProt P01116). Put plainly: flow cytometry, fixed permeabilised HT29 cells, isotype-matched control UPC-10.
The target in experiment [7] is HLA-A2 (human). Description: T2 bioassay, isotype-matched control MAb staining of T2 cells incubated with ras5-12(V12).
Experiment [8] has as its target HLA-A2 (human). Put plainly: T2 bioassay, isotype-matched control MAb staining of T2 cells incubated with ras5-14(V12).
The target in experiment [9] is HLA-A2 (human). Description: T2 bioassay, isotype-matched control MAb staining of T2 cells incubated with CEA571-579.
For experiment [10], the target named is ras p21 proteins of the SW480 colon carcinoma cell line (K-ras Val12 mutation) (human) (UniProt P01116). Put plainly: flow cytometry, fixed permeabilised SW480 cells, isotype-matched control UPC-10.
Experiment [11] has as its target HLA-A2 (human). Description: T2 bioassay, isotype-matched control MAb staining of T2 cells incubated with ras5-17(D12).
Experiment [12] addresses HLA-A2 (human). Put plainly: T2 bioassay, isotype-matched control MAb staining of T2 cells incubated with ras5-14(D12).
For experiment [13], the target named is HLA-A2 (human). Description: T2 bioassay, isotype-matched control MAb staining of T2 cells incubated with ras5-14(G12).
In experiment [14] the target is HLA-A2 (human). Put plainly: T2 bioassay, isotype-matched control MAb staining of T2 cells incubated with ras5-14(C12).
Experiment [15] has as its target HLA-A2 (human). Put plainly: T2 bioassay, isotype-matched control MAb staining of T2 cells incubated with ras5-13(V12).
Experiment [16] addresses ras p21 proteins of the Calu-1 lung carcinoma cell line (K-ras Cys12 mutation) (human) (UniProt P01116). Put plainly: flow cytometry, fixed permeabilised Calu-1 cells, isotype-matched control UPC-10.
Experiment [17] concerns the target MHC class I (HLA class I) molecules. Put plainly: T2 bioassay, no peptide (b2m 3 µg/ml only), flow cytometry, staining of T2 cells with pan class I MAb W6/32; baseline.
Experiment [18] has the same target. Put plainly: flow cytometry, HT29 cells, W6/32.
Experiment [19] shares this target. Put plainly: flow cytometry, SW480 cells, W6/32.
Experiment [20] shares this target. Put plainly: flow cytometry, Calu-1 cells, W6/32.
The target of experiment [21] is HLA-A2 (human). Description: T2 bioassay (peptide 50 µg/ml + b2m 3 µg/ml, overnight), flow cytometry, stained with anti-HLA-A2 MAb.
Experiment [22] addresses HLA-A2 (human). Description: T2 bioassay (peptide 50 µg/ml + b2m 3 µg/ml, overnight), flow cytometry, stained with pan class I MAb W6/32.
In experiment [23] the target is ras p21 proteins of the SW480 colon carcinoma cell line (K-ras Val12 mutation) (human) (UniProt P01116). Put plainly: sandwich ELISA, RAS 10 capture, Y13-238 detection, SW480 lysate 75 µg protein.
For experiment [24] the target is unchanged. Put plainly: sandwich ELISA, RAS 10 capture, Y13-238 detection, SW480 lysate 7.5 µg protein.
Experiment [25] deals with ras p21 proteins of the Calu-1 lung carcinoma cell line (K-ras Cys12 mutation) (human) (UniProt P01116). Description: sandwich ELISA, RAS 10 capture, Y13-238 detection, Calu-1 lysate 7.5 µg protein.
Experiment [26] concerns the target ras p21 proteins of the HT-29 colon carcinoma cell line (no known ras codon 12 point mutation) (human) (UniProt P01116). Put plainly: sandwich ELISA, RAS 10 capture, Y13-238 detection, HT29 lysate 75 µg protein.
The target in experiment [27] is ras p21 proteins of the Calu-1 lung carcinoma cell line (K-ras Cys12 mutation) (human) (UniProt P01116). Description: sandwich ELISA, RAS 10 capture, Y13-238 detection, Calu-1 lysate 75 µg protein.
Experiment [28] concerns the target ras p21 proteins of the HT-29 colon carcinoma cell line (no known ras codon 12 point mutation) (human) (UniProt P01116). Put plainly: sandwich ELISA, RAS 10 capture, Y13-238 detection, HT29 lysate 7.5 µg protein.
For experiment [29], the target named is ras p21 proteins of the Calu-1 lung carcinoma cell line (K-ras Cys12 mutation) (human) (UniProt P01116). Description: flow cytometry, fixed permeabilised Calu-1 cells, RAS 10 at 3 µg/ml.
The target of experiment [30] is ras p21 proteins of the HT-29 colon carcinoma cell line (no known ras codon 12 point mutation) (human) (UniProt P01116). Description: flow cytometry, fixed permeabilised HT29 cells, RAS 10 at 1 µg/ml.
In experiment [31] the target is ras p21 proteins of the Calu-1 lung carcinoma cell line (K-ras Cys12 mutation) (human) (UniProt P01116). Put plainly: flow cytometry, fixed permeabilised Calu-1 cells, RAS 10 at 10 µg/ml.
For experiment [32], the target named is ras p21 proteins of the HT-29 colon carcinoma cell line (no known ras codon 12 point mutation) (human) (UniProt P01116). Put plainly: flow cytometry, fixed permeabilised HT29 cells, RAS 10 at 3 µg/ml.
In experiment [33] the target is ras p21 proteins of the SW480 colon carcinoma cell line (K-ras Val12 mutation) (human) (UniProt P01116). Put plainly: flow cytometry, fixed permeabilised SW480 cells, RAS 10 at 1 µg/ml.
Experiment [34] concerns the target ras p21 proteins of the HT-29 colon carcinoma cell line (no known ras codon 12 point mutation) (human) (UniProt P01116). Put plainly: flow cytometry, fixed permeabilised HT29 cells, RAS 10 at 10 µg/ml.
Experiment [35] deals with ras p21 proteins of the Calu-1 lung carcinoma cell line (K-ras Cys12 mutation) (human) (UniProt P01116). Description: flow cytometry, fixed permeabilised Calu-1 cells, RAS 10 at 1 µg/ml.
For experiment [36], the target named is ras p21 proteins of the SW480 colon carcinoma cell line (K-ras Val12 mutation) (human) (UniProt P01116). Description: flow cytometry, fixed permeabilised SW480 cells, RAS 10 at 10 µg/ml.
Experiment [37] has the same target. Description: flow cytometry, fixed permeabilised SW480 cells, RAS 10 at 3 µg/ml.
For experiment [38], the target named is ras p21 proteins of the Calu-1 lung carcinoma cell line (K-ras Cys12 mutation) (human) (UniProt P01116). Put plainly: cell-based or functional assay.

Regarding “rat IgG2a anti-mouse B7.1 MAb (antibody)”, the Immunoreactivity (A490) turned out to be 0.333 A490 in experiment [1], 0.299 A490 in experiment [2] and 0.283 A490 in experiment [3].

Consider “isotype-matched (IgG2a) MAb UPC-10 (antibody)”, for which the MFI in [4] came to 84; in experiment [5], 39.6; in [7], 44.2; in [8], 38.1; in experiment [9] it was 48.4; in experiment [11], 46.5. Further, the MFI in experiment [12] was determined as 50.8; in experiment [13] it was 41.3; in experiment [14], 61.4; in experiment [15] it was 54.1. For the same substance, the Percent Positive Cells in [6] is 11.6%; in [10], 5.3%; in experiment [16], 1%.

With pan HLA class I MAb W6/32 (antibody), the MFI turned out to be 230 in experiment [17], 1310 in experiment [18], 1180 in experiment [19] and 1620 in experiment [20]. Moreover, the Percent Positive Cells in experiment [18] was 93.5%; in [19], 84.2%; in [20] it was 93.4%.

For “CEA571-579 peptide (from UniProt P06731 571-579)”, the MFI in experiment [21] worked out at 680; in [22] it was 991.

Turning to ras MAb, clone Y13-238 (antibody), the Immunoreactivity (A490) in [23] was 1.59 A490; in [24], 1.5 A490; in experiment [25], 1.29 A490; in experiment [26], 1.49 A490; in experiment [27], 1.5 A490; in experiment [28] it was 0.99 A490.

As for pan-ras MAb, clone RAS 10 (antibody), the MFI in [29] was found to be 225; in experiment [30], 233; in [31] it was 332; in experiment [32], 304; in [33], 273; in [34], 423. Further, the results for the MFI in experiment [35], in experiment [36] and in experiment [37] were 176, 631 and 386, respectively. In addition, the Percent Positive Cells in experiment [29] stood at 87.8%; in experiment [30] it was 58.6%; in [31] it was 90.6%; in [32], 83.4%; in experiment [33] it was 67%; in experiment [34], 93.1%. The Percent Positive Cells in experiment [35] turned out to be 59.8%; in experiment [36] it was 83.4%; in [37], 82.8%.

As to isotype-matched (IgG2a) MAb UPC-10, the Proliferation Response (3H-thymidine uptake, cpm) of the CD4+ T cell line of patient 43 to Calu-1 extract (250 µg protein) on wells coated with isotype-matched MAb UPC-10, with BLCL in experiment [38] was 7320 cpm.

On to pan-ras MAb, clone RAS 10, for which the Proliferation Response (3H-thymidine uptake, cpm) of the CD4+ T cell line of patient 43 to Calu-1 extract (250 µg protein) on wells coated with RAS 10, with BLCL in experiment [38] is 80500 cpm.
